From the supplement of paper PMC7877785
± gives the uncertainty stated by the source.

Experiment: self-splicing fitness, log relative to wild type (ln ratio); higher = more splicing; Tetrahymena group I intron in knt gene, E. coli kanamycin selection, DiMSum; sequences stand for … in CUCUCU…GGAGGGAAAAGUUAUCAGGCAUGCACCUGGUAGCUAGUCUUUAAACCAAUAGAUUGCAUCGGUUUAAAAGGCAAGACCGUCAAAUUGCGGGAAAGGGGUCAACAGCCGUUCAGUACCAAGUCUCAGGGGAAACUUUGAGAUGGCCUUGCAAAGGGUAUGGUAAUAAGCUGACGGACAUGGUCCUAACCACGCAGCCAAGUCCUAAGUCAACAGAUCUUCUGUUGAUAUGGAUGCAGUUCACAGACUAAAUGUCGGUCGGGGAAGAUGUAUUCUUCUCAUAAGAUAUAGUCGGACCUCUCCUUAAUGGGAGCUAGCGGAUGAAGUGAUGCAACACUGGAGCCGCUGGGAACUAAUUUGUAUGCGAAAGUAUAUUGAUUAGUUUUGGAGUACUCGUGGUCG
In short: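 Library with all eight P1ex-region intron nucleotides randomised, intron inside the knt kanamycin-resistance gene on pET-22b(+), in E. coli BL21(DE3). Cells grew overnight at 37°C or 30°C on LB agar with or without 25 μg/mL kanamycin (plus 100 μg/mL carbenicillin, 50 μM IPTG, 0.2% rhamnose), in six replicate transformations. Pooled colonies were amplicon-sequenced on Illumina HiSeq 2500. DiMSum fitness is the error-weighted combination of wild-type-normalised replicate fold changes, kanamycin versus none.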

Sequence	self-splicing fitness (ln) (30 °C)	self-splicing fitness (ln) (37 °C)
GUUCAGCAAUAUUACGAAAU	-0.0391 ± 0.068	0.236 ± 0.12
CGUAAGCAAUAUUACGGCGA	-2.31 ± 0.2	-2.02 ± 0.25
GAGUAGCAAUAUUACGUGUC	-1.73 ± 0.16	-1.53 ± 0.26
AAAUAGCAAUAUUACGUAUA	-1.63 ± 0.12	-0.558 ± 0.12
GAUAAGCAAUAUUACGUAGU	-2.09 ± 0.083	-0.957 ± 0.091
AUAAAGCAAUAUUACGAUUC	-0.837 ± 0.085	-0.228 ± 0.097
GGAUAGCAAUAUUACGACGA	-1.43 ± 0.12	-0.57 ± 0.1
UGUCAGCAAUAUUACGGAUA	-1.37 ± 0.1	-0.339 ± 0.12
GUCUAGCAAUAUUACGAUCU	-1.57 ± 0.12	-0.315 ± 0.14
GCACAGCAAUAUUACGUCAA	-0.993 ± 0.079	-0.565 ± 0.082
UGGAAGCAAUAUUACGUCAA	-1.53 ± 0.12	-0.758 ± 0.13
AGAUAGCAAUAUUACGGAAA	-3.51 ± 0.37	-2.34 ± 0.25
AAGUAGCAAUAUUACGGGUC	-3.44 ± 0.16	-2.84 ± 0.19
GGCCAGCAAUAUUACGCAUA	-1.52 ± 0.095	-0.945 ± 0.12
AUCUAGCAAUAUUACGUUUC	-2.64 ± 0.35	-2.9 ± 0.47
UCUCAGCAAUAUUACGACGG	-0.806 ± 0.071	-0.119 ± 0.094
AAAUAGCAAUAUUACGGCCA	-0.522 ± 0.15	-0.523 ± 0.18
CAGAAGCAAUAUUACGCUUC	–	-3.54 ± 0.4
GCACAGCAAUAUUACGGAUG	-2.18 ± 0.075	-1.61 ± 0.096
GCAGAGCAAUAUUACGUGCU	-3.24 ± 0.15	-2.73 ± 0.22
UGAGAGCAAUAUUACGCGUC	-2.95 ± 0.38	-1.37 ± 0.41
UAGCAGCAAUAUUACGUUCC	-3.78 ± 0.4	0.00366 ± 0.21
UAACAGCAAUAUUACGGUAG	-1.7 ± 0.07	-0.0293 ± 0.076
CCAUAGCAAUAUUACGUCUC	-4.6 ± 0.28	-3.05 ± 0.22
GAACAGCAAUAUUACGGUCA	-0.702 ± 0.062	-1.05 ± 0.066

Sequence	self-splicing fitness (ln) (30 °C)	self-splicing fitness (ln) (37 °C)
GAACAGCAAUAUUACGCGCA	-0.367 ± 0.06	0.0257 ± 0.081
ACCUAGCAAUAUUACGUGAG	-0.357 ± 0.048	-0.0328 ± 0.061
CUUGAGCAAUAUUACGGUAG	-2.88 ± 0.11	-0.826 ± 0.094
UGCUAGCAAUAUUACGGGUC	-2.99 ± 0.16	-2.62 ± 0.18
GUUCAGCAAUAUUACGUCAG	-3.88 ± 0.23	-3.07 ± 0.24
UCGCAGCAAUAUUACGAUCC	–	-1.68 ± 0.36
CAUGAGCAAUAUUACGCCUA	-2.28 ± 0.24	-1.75 ± 0.26
AGAUAGCAAUAUUACGAGUC	-2.64 ± 0.18	-2.14 ± 0.21
AAGUAGCAAUAUUACGCUUG	-1.6 ± 0.097	-0.42 ± 0.1
UAUCAGCAAUAUUACGCCGG	-0.251 ± 0.22	0.843 ± 0.26
GAAGAGCAAUAUUACGACCG	-2.29 ± 0.36	–
CGACAGCAAUAUUACGAAUU	-3.51 ± 0.19	-2.04 ± 0.18
AGAUAGCAAUAUUACGAUAU	-1.02 ± 0.11	-0.119 ± 0.14
CCGAAGCAAUAUUACGUUAC	-3.03 ± 0.16	-2.43 ± 0.26
UUAUAGCAAUAUUACGGUCG	-0.705 ± 0.11	0.176 ± 0.15
CGAGAGCAAUAUUACGGCAG	-2 ± 0.18	-1.33 ± 0.22
AUUAAGCAAUAUUACGUAGC	-4.67 ± 0.45	-1.84 ± 0.22
GGCCAGCAAUAUUACGAGGU	-3.26 ± 0.45	-2.45 ± 0.32
AAUGAGCAAUAUUACGGCAC	-2.9 ± 0.28	-1.27 ± 0.32
UAAGAGCAAUAUUACGCACC	–	-1.93 ± 0.41
CAUCAGCAAUAUUACGCGGA	-3.61 ± 0.27	-2.6 ± 0.29
GGAUAGCAAUAUUACGUGAC	-2.63 ± 0.35	-1.46 ± 0.26
AGGAAGCAAUAUUACGGGUC	-3 ± 0.32	-2.31 ± 0.29
GCCAAGCAAUAUUACGUACC	-1.28 ± 0.1	-0.683 ± 0.15
UUACAGCAAUAUUACGUGAC	-3.7 ± 0.21	-1.81 ± 0.16

Sequence	self-splicing fitness (ln) (30 °C)	self-splicing fitness (ln) (37 °C)
GUGCAGCAAUAUUACGGAAA	–	-1.63 ± 0.34
AGUCAGCAAUAUUACGCGGC	-3.02 ± 0.29	–
UACAAGCAAUAUUACGCAUC	-2.99 ± 0.16	-2.02 ± 0.18
UCAUAGCAAUAUUACGACAA	-2.43 ± 0.26	-1.06 ± 0.15
ACAUAGCAAUAUUACGGGGC	-2.87 ± 0.12	-1.81 ± 0.13
UCGAAGCAAUAUUACGAGAU	-4.08 ± 0.42	-2.66 ± 0.21
ACUCAGCAAUAUUACGAAGC	-1.99 ± 0.19	-1.46 ± 0.16
AACAAGCAAUAUUACGGAUG	-2.4 ± 0.08	-2.37 ± 0.096
UAUAAGCAAUAUUACGUCCU	-1.28 ± 0.11	0.43 ± 0.14
UAAAAGCAAUAUUACGUGUC	-3.12 ± 0.25	-2.5 ± 0.2
CCUCAGCAAUAUUACGAUGG	-4.2 ± 0.19	-2.69 ± 0.16
UCCUAGCAAUAUUACGGACC	-2.64 ± 0.27	–
GCCAAGCAAUAUUACGGGAG	-3.55 ± 0.19	-1.46 ± 0.13
UAAUAGCAAUAUUACGCCCA	-1.36 ± 0.19	0.129 ± 0.26
AUAAAGCAAUAUUACGUAAC	-1.92 ± 0.13	-0.901 ± 0.17
CCAGAGCAAUAUUACGUGGG	-3.73 ± 0.27	-2.29 ± 0.18
CGCAAGCAAUAUUACGCUUG	-2.74 ± 0.2	-1.87 ± 0.21
CAGUAGCAAUAUUACGAAUU	-3.34 ± 0.28	–
CUGUAGCAAUAUUACGAAUU	–	-2.7 ± 0.3
CCGAAGCAAUAUUACGUUGG	-3.26 ± 0.19	-2.16 ± 0.19
GGAGAGCAAUAUUACGAGCC	-2.64 ± 0.49	–
AGUCAGCAAUAUUACGACUG	-0.879 ± 0.055	-0.421 ± 0.069
AACGAGCAAUAUUACGCAUC	-3.65 ± 0.3	-0.331 ± 0.18
CCUCAGCAAUAUUACGUCGA	-3.67 ± 0.27	-2.28 ± 0.2
AUCGAGCAAUAUUACGUUCC	-1.89 ± 0.24	-2.02 ± 0.26

Sequence	self-splicing fitness (ln) (30 °C)	self-splicing fitness (ln) (37 °C)
CCAGAGCAAUAUUACGGCUA	-2.84 ± 0.2	-2.94 ± 0.4
GGUCAGCAAUAUUACGCGCU	–	-2.13 ± 0.15
UUUUAGCAAUAUUACGCGAA	-1.57 ± 0.28	-1.08 ± 0.39
CACAAGCAAUAUUACGCAGU	-3.4 ± 0.2	-2.37 ± 0.16
GGUUAGCAAUAUUACGUUUG	-4.51 ± 0.34	-1.42 ± 0.17
GUGAAGCAAUAUUACGAGUA	-1.84 ± 0.13	-1.47 ± 0.16
GACAAGCAAUAUUACGGUGU	-3.98 ± 0.13	-1.9 ± 0.11
CAUGAGCAAUAUUACGUUUC	-2.86 ± 0.34	–
GGAAAGCAAUAUUACGAUCA	0.0514 ± 0.081	-0.282 ± 0.099
UGAGAGCAAUAUUACGUAUC	-0.611 ± 0.42	-0.408 ± 0.47
GUAAAGCAAUAUUACGUUUC	-2.07 ± 0.16	-1.03 ± 0.22
CUGGAGCAAUAUUACGUCGG	-3.08 ± 0.26	–
CUACAGCAAUAUUACGUGAA	-4.26 ± 0.19	-2.08 ± 0.17
CGUUAGCAAUAUUACGCGGA	-2.82 ± 0.47	-1.31 ± 0.17
AACUAGCAAUAUUACGUGGU	-3.36 ± 0.16	-2.86 ± 0.23
UUACAGCAAUAUUACGCUUA	-1.38 ± 0.11	-0.114 ± 0.1
GGGAAGCAAUAUUACGAAGA	–	-0.943 ± 0.23
CUUCAGCAAUAUUACGAAUC	-1.04 ± 0.2	-1.06 ± 0.19
CGCGAGCAAUAUUACGGGAA	-3.74 ± 0.27	-2.4 ± 0.29
AAUCAGCAAUAUUACGCCCG	-0.416 ± 0.14	-0.489 ± 0.16
UCAGAGCAAUAUUACGCCGG	-2.92 ± 0.24	–
CCACAGCAAUAUUACGUCCC	-3.18 ± 0.43	-2.06 ± 0.4
AUCUAGCAAUAUUACGUGGA	-2.71 ± 0.24	-2.91 ± 0.26
UCUGAGCAAUAUUACGCUAU	-3.8 ± 0.22	-3.15 ± 0.28
AAGUAGCAAUAUUACGCCUG	-0.259 ± 0.14	-0.00805 ± 0.14
